From patent US20170138958A1

Assays:
[1] = biological target: Fr. 3 antigen (C-terminal region, zinc finger region, positions 294-449 of WT1) (human) (UniProt P19544); experiment: antigen inhibition ELISA on immobilised Fr. 3; antibody whose binding is inhibited: serum sample No. 7
[2] = biological target: Fr. 3 antigen (C-terminal region, zinc finger region, positions 294-449 of WT1) (human) (UniProt P19544); experiment: antigen inhibition ELISA on immobilised Fr. 3; antibody whose binding is inhibited: C-19 (PoAb)
[3] = biological target: Fr. 3 antigen (C-terminal region, zinc finger region, positions 294-449 of WT1) (human) (UniProt P19544); experiment: antigen inhibition ELISA on immobilised Fr. 3; antibody whose binding is inhibited: serum sample No. 3
[4] = biological target: Fr. 3 antigen (C-terminal region, zinc finger region, positions 294-449 of WT1) (human) (UniProt P19544); experiment: antigen inhibition ELISA on immobilised Fr. 3; antibody whose binding is inhibited: serum sample No. 9

Sequence of UniProt P19544 (P19544 294-449): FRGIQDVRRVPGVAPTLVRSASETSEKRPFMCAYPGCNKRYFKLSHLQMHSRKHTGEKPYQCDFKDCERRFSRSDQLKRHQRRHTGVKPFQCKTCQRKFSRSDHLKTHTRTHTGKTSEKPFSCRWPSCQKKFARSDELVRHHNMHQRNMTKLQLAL

## Fr. 2 antigen (hWT1 Fr. 2, central region, positions 181-324 of WT1) (from UniProt P19544 181-324)
[1]
  percent inhibition: 20%
[2]
  percent inhibition: 50%
[3]
  percent inhibition: 70%

## Fr. 1 antigen (recombinant hWT1 Fr. 1, N-terminal region, positions 1-182 of WT1) (from UniProt P19544 1-182)
[4]
  percent inhibition: 40%
[1]
  percent inhibition: 10%
[2]
  percent inhibition: 25%
